Assay results reported in patent US20200325237A1.

Experiments:
[1] = molecular target: TfR2 (transferrin receptor 2) (UniProt Q9UP52); test: A450 plate assay on TfR2 (method not described in the text)
[2] = molecular target: hTfR (human transferrin receptor, source and construct not stated) (human) (UniProt P02786); test: ELISA; ratio of the Kd on transferrin-captured hTfR to the Kd on directly coated hTfR
[3] = molecular target: hTfR (human transferrin receptor, source and construct not stated) (human) (UniProt P02786); test: ELISA; ratio of the Kd on HFE-captured hTfR to the Kd on directly coated hTfR
[4] = molecular target: hTfR (human transferrin receptor, source and construct not stated) (human) (UniProt P02786); test: ELISA, biotinylated antibody on hTfR captured by plate-coated human holo-transferrin (Tf+TfR); fit: specific binding with Hill slope
[5] = molecular target: hTfR (human transferrin receptor, source and construct not stated) (human) (UniProt P02786); test: ELISA, biotinylated antibody on hTfR captured by plate-coated HFE (HFE+TfR); fit: specific binding with Hill slope

Chain of hTfR (human transferrin receptor, source and construct not stated) (human) (P02786 89-760 limits assumed): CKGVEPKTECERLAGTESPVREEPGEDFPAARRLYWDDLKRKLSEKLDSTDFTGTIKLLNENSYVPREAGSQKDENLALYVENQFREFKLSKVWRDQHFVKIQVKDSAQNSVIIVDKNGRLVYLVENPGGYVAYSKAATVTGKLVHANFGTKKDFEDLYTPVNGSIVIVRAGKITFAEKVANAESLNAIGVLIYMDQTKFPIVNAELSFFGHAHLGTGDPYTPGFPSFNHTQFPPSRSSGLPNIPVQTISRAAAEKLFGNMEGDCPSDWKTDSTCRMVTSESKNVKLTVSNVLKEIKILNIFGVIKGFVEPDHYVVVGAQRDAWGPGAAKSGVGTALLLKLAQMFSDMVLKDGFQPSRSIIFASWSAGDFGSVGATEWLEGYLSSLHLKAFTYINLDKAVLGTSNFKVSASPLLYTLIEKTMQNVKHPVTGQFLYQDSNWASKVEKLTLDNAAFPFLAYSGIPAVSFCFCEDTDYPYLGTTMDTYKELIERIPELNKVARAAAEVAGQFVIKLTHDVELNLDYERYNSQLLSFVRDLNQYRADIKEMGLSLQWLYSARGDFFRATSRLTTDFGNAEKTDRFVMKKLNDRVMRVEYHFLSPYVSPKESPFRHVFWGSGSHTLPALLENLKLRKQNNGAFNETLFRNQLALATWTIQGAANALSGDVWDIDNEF
Chain of TfR2 (transferrin receptor 2) (Q9UP52 105-801 limits assumed): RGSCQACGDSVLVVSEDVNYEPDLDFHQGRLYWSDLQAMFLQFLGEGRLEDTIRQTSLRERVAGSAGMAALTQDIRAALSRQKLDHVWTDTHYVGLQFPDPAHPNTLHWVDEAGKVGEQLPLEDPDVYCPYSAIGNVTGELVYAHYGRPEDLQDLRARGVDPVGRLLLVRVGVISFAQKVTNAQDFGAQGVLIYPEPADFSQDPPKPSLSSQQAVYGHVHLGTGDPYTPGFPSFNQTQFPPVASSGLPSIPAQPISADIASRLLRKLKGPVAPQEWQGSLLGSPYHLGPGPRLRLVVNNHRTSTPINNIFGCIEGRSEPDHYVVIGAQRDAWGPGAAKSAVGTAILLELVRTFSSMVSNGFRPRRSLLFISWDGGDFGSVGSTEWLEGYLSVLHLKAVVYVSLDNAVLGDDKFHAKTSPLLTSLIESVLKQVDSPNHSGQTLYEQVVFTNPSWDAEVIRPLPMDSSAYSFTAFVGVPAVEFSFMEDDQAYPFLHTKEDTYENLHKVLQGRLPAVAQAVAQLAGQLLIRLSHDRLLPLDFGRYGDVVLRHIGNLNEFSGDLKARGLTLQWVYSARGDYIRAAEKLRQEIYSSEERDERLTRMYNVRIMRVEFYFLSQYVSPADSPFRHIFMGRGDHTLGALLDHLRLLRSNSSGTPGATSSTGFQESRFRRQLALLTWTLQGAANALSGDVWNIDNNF

Row | Substance | EC50 (read off the curve) [1] [nM] | Kd(Tf+TfR)/Kd(TfR) [2] | Kd(HFE+TfR)/Kd(TfR) [3] | Bmax [4] [A450] | Kd [4] [nM] | h [4] | Bmax [5] [A450] | Kd [5] [nM] | h [5]
1 | TfR2 Ab B-6 (antibody) | 0.3 |  |  |  |  |  |  |  | 
2 | blocking AF2474 (antibody) |  | 51.8 | 688 | 4.26 | 2.18 | 1.12 | 5.7 | 28.9 | 0.8
